Assay results reported in patent US20230340160A1 (published 2023).

T1: human CEA expressed on tumor cells (human, UniProt P06731 35-702)
T1 sequence (looked up): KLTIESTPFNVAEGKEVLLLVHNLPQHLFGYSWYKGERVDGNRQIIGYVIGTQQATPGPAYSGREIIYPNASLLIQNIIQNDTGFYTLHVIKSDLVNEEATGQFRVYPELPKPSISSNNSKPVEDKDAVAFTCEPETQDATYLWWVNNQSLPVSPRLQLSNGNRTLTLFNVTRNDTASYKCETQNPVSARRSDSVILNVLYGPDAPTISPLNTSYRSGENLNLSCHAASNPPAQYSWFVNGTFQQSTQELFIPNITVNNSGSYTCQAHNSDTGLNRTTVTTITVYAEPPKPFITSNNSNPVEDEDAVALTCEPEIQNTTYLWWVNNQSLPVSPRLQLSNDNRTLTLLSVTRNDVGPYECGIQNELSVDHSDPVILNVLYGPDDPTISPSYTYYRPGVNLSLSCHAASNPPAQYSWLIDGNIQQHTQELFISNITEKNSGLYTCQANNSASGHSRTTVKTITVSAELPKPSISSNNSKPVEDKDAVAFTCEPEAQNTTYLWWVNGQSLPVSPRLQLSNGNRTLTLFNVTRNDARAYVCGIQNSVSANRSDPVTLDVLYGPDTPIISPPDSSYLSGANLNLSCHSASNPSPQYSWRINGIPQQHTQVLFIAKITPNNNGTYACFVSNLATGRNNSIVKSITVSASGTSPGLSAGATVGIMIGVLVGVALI

B1: CD3/MCSP “1+1 CrossMab”; CL/CH1 exchange (LC007/V9) (bispecific antibody, human IgG1, kappa, L234A L235A)
heavy 1: not shown
heavy 2: EVQLQESGPGLVKPSQSLSLTCSVTGYSITSGYYWNWIRQFPGNKLEWMGYITYDGSNNYNPSLKNRISITRDTSKNQFFLKLNSVTTEDTATYYCADFDYWGQGTTLTVSSASTKGPSVFPLAPSSKSTSGGTAALGCLVKDYFPEPVTVSWNSGALTSGVHTFPAVLQSSGLYSLSSVVTVPSSSLGTQTYICNVNHKPSNTKVDKKVEPKSCDKTHTCPPCPAPEAAGGPSVFLFPPKPKDTLMISRTPEVTCVVVDVSHEDPEVKFNWYVDGVEVHNAKTKPREEQYNSTYRVVSVLTVLHQDWLNGKEYKCKVSNKALGAPIEKTISKAKGQPREPQVCTLPPSRDELTKNQVSLSCAVKGFYPSDIAVEWESNGQPENNYKTTPPVLDSDGSFFLVSKLTVDKSRWQQGNVFSCSVMHEALHNHYTQKSLSLSPGK
light 1: DIVLTQSPSSLSASLGDRVTISCSASQGIRNYLNWYQQRPDGTVKLLIYYTSSLHSGVPSRFSGSGSGTDYSLTISNLEPEDIATYYCQQYSKLPWTFGGGTKLEIKRTVAAPSVFIFPPSDEQLKSGTASVVCLLNNFYPREAKVQWKVDNALQSGNSQESVTEQDSKDSTYSLSSTLTLSKADYEKHKVYACEVTHQGLSSPVTKSFNRGEC
light 2: DIQMTQSPSSLSASVGDRVTITCRASQDIRNYLNWYQQKPGKAPKLLIYYTSRLESGVPSRFSGSGSGTDYTLTISSLQPEDFATYYCQQGNTLPWTFGQGTKVEIKSSASTKGPSVFPLAPSSKSTSGGTAALGCLVKDYFPEPVTVSWNSGALTSGVHTFPAVLQSSGLYSLSSVVTVPSSSLGTQTYICNVNHKPSNTKVDKKVEPKSC
B2: “2+1 IgG Crossfab, inverted”; CL/CH1 exchange (LC007/anti-CD3) (bispecific antibody)
heavy 1: not shown
heavy 2: B1 heavy 2
light 1: B1 light 1
light 2: QAVVTQESALTTSPGETVTLTCRSSTGAVTTSNYANWVQEKPDHLFTGLIGGTNKRAPGVPARFSGSLIGDKAALTITGAQTEDEAIYFCALWYSNLWVFGGGTKLTVLSSASTKGPSVFPLAPSSKSTSGGTAALGCLVKDYFPEPVTVSWNSGALTSGVHTFPAVLQSSGLYSLSSVVTVPSSSLGTQTYICNVNHKPSNTKVDKKVEPKSC
notes: also called 2+1 IgG Crossfab, inverted (anti-CD3)
B3: CD3/MCSP “2+1 IgG Crossfab, inverted”; CL/CH1 exchange (LC007/V9) (bispecific antibody)
heavy 1: not shown
heavy 2: B1 heavy 2
light 1: B1 light 1
light 2: B1 light 2
notes: also called 2+1 IgG Crossfab, inverted (V9)
B4: “1+1 IgG Crossfab light chain (LC) fusion” (CH1A1A/V9) (bispecific antibody)
heavy: not shown
chain: DKTHTCPPCPAPEAAGGPSVFLFPPKPKDTLMISRTPEVTCVVVDVSHEDPEVKFNWYVDGVEVHNAKTKPREEQYNSTYRVVSVLTVLHQDWLNGKEYKCKVSNKALGAPIEKTISKAKGQPREPQVCTLPPSRDELTKNQVSLSCAVKGFYPSDIAVEWESNGQPENNYKTTPPVLDSDGSFFLVSKLTVDKSRWQQGNVFSCSVMHEALHNHYTQKSLSLSPGK
light 1: DIQMTQSPSSLSASVGDRVTITCKASAAVGTYVAWYQQKPGKAPKLLIYSASYRKRGVPSRFSGSGSGTDFTLTISSLQPEDFATYYCHQYYTYPLFTFGQGTKLEIKRTVAAPSVFIFPPSDEQLKSGTASVVCLLNNFYPREAKVQWKVDNALQSGNSQESVTEQDSKDSTYSLSSTLTLSKADYEKHKVYACEVTHQGLSSPVTKSFNRGECGGGGSGGGGSGGGGSGGGGSEVQLVESGGGLVQPGGSLRLSCAASGYSFTGYTMNWVRQAPGKGLEWVALINPYKGVSTYNQKFKDRFTISVDKSKNTAYLQMNSLRAEDTAVYYCARSGYYGDSDWYFDVWGQGTLVTVSSASVAAPSVFIFPPSDEQLKSGTASVVCLLNNFYPREAKVQWKVDNALQSGNSQESVTEQDSKDSTYSLSSTLTLSKADYEKHKVYACEVTHQGLSSPVTKSFNRGEC
light 2: B1 light 2
notes: also called 1+1 IgG Crossfab LC fusion
B5: “2+1 IgG Crossfab”; CL/CH1 exchange (LC007/anti-CD3) (bispecific antibody)
heavy 1: not shown
heavy 2: B1 heavy 2
light 1: B1 light 1
light 2: B2 light 2
notes: also called 2+1 IgG Crossfab (anti-CD3)

What was measured:
[1] = molecular target: T2, human MCSP expressed on tumor cells (human, UniProt Q6UVK1 30-2322); test: cell-based or functional assay
[2] = molecular target: T2, human MCSP expressed on tumor cells; test: flow cytometry on WM266-4 cells
Description: (§1) Binding of the different bispecific constructs to CD3 on Jurkat cells (ATCC #TIB-152), and the respective tumor antigen on target cells, was determined by FACS. Briefly, cells were harvested, counted and checked for viability. 0.15 - 0.2 million cells per well (in PBS containing 0.1% BSA; 90 µl) were plated in a round-bottom 96-well plate and incubated with the indicated concentration of the bispecific constructs and corresponding IgG controls (10 µl) for 30 min at 4° C. For a better comparison, all constructs and IgG controls were normalized to same molarity. After the incubation, cells were centrifuged (5 min, 350 × g), washed with 150 µl PBS containing 0.1% BSA, resuspended and incubated for further 30 min at 4° C. with 12 µl/well of a FITC-or PE-conjugated secondary antibody. Bound constructs were detected using a FACSCantoII (Software FACS Diva). The “(scFv)₂” molecule was detected using a FITC-conjugated anti-His antibody (Lucerna, #RHIS-45F-Z). For all other molecules, a FITC- or PE-conjugated AffiniPure F(ab′)2 Fragment goat anti-human IgG Fcγ Fragment Specific (Jackson Immuno Research Lab # 109-096-098 / working solution 1:20, or #109-116-170 / working solution 1:80, respectively) was used. Cells were washed by addition of 120 µl/well PBS containing 0.1% BSA and centrifugation at 350 × g for 5 min. A second washing step was performed with 150 µl/well PBS containing 0.1% BSA. Unless otherwise indicated, cells were fixed with 100 µl/well fixation buffer (BD #554655) for 15 min at 4° C. in the dark, centrifuged for 6 min at 400 × g and kept in 200 µl/well PBS containing 0.1% BSA until the samples were measured with FACS CantoII. EC50 values were calculated using the GraphPad Prism software.
In a final experiment, binding of the “2+1 IgG Crossfab” (SEQ ID NOs 5, 23, 215, 217) and the “2+1 IgG Crossfab, inverted” (SEQ ID NOs 5, 23, 215, 219) constructs to human CD3, expressed by Jurkat cells, and to human MCSP, expressed by WM266-4 tumor cells was determined. As depicted in FIG. 58A and FIG. 58B the binding to human CD3 was reduced for the “2+1 IgG Crossfab, inverted” compared to the other construct, but the binding to human MCSP was comparably good.

[3] = molecular target: T2, human MCSP expressed on tumor cells; test: cell-based or functional assay; remark: listed apart in the source
[4] = molecular target: T3, human CD3 expressed on Jurkat cells (human, UniProt P07766 23-207); test: flow cytometry on Jurkat cells
T3 construct: CD3 complex on Jurkat cells (ATCC TIB-152); also called huCD3
Description: as §1
As a control, the equivalent maximum concentration of the corresponding IgGs and the background staining due to the labeled 2ndary antibody (goat anti-human FITC-conjugated AffiniPure F(ab′)2 Fragment, Fcγ Fragment-specific, Jackson Immuno Research Lab # 109-096-098) were assessed as well.

[5] = molecular target: T1, human CEA expressed on tumor cells; test: cell-based or functional assay

T3 sequence (P07766 23-207 limits assumed): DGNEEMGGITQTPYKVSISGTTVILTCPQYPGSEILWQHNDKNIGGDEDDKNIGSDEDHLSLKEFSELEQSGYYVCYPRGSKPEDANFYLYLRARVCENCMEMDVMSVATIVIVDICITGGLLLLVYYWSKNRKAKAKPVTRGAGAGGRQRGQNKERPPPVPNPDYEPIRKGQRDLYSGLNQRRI
T2 sequence (Q6UVK1 30-2322): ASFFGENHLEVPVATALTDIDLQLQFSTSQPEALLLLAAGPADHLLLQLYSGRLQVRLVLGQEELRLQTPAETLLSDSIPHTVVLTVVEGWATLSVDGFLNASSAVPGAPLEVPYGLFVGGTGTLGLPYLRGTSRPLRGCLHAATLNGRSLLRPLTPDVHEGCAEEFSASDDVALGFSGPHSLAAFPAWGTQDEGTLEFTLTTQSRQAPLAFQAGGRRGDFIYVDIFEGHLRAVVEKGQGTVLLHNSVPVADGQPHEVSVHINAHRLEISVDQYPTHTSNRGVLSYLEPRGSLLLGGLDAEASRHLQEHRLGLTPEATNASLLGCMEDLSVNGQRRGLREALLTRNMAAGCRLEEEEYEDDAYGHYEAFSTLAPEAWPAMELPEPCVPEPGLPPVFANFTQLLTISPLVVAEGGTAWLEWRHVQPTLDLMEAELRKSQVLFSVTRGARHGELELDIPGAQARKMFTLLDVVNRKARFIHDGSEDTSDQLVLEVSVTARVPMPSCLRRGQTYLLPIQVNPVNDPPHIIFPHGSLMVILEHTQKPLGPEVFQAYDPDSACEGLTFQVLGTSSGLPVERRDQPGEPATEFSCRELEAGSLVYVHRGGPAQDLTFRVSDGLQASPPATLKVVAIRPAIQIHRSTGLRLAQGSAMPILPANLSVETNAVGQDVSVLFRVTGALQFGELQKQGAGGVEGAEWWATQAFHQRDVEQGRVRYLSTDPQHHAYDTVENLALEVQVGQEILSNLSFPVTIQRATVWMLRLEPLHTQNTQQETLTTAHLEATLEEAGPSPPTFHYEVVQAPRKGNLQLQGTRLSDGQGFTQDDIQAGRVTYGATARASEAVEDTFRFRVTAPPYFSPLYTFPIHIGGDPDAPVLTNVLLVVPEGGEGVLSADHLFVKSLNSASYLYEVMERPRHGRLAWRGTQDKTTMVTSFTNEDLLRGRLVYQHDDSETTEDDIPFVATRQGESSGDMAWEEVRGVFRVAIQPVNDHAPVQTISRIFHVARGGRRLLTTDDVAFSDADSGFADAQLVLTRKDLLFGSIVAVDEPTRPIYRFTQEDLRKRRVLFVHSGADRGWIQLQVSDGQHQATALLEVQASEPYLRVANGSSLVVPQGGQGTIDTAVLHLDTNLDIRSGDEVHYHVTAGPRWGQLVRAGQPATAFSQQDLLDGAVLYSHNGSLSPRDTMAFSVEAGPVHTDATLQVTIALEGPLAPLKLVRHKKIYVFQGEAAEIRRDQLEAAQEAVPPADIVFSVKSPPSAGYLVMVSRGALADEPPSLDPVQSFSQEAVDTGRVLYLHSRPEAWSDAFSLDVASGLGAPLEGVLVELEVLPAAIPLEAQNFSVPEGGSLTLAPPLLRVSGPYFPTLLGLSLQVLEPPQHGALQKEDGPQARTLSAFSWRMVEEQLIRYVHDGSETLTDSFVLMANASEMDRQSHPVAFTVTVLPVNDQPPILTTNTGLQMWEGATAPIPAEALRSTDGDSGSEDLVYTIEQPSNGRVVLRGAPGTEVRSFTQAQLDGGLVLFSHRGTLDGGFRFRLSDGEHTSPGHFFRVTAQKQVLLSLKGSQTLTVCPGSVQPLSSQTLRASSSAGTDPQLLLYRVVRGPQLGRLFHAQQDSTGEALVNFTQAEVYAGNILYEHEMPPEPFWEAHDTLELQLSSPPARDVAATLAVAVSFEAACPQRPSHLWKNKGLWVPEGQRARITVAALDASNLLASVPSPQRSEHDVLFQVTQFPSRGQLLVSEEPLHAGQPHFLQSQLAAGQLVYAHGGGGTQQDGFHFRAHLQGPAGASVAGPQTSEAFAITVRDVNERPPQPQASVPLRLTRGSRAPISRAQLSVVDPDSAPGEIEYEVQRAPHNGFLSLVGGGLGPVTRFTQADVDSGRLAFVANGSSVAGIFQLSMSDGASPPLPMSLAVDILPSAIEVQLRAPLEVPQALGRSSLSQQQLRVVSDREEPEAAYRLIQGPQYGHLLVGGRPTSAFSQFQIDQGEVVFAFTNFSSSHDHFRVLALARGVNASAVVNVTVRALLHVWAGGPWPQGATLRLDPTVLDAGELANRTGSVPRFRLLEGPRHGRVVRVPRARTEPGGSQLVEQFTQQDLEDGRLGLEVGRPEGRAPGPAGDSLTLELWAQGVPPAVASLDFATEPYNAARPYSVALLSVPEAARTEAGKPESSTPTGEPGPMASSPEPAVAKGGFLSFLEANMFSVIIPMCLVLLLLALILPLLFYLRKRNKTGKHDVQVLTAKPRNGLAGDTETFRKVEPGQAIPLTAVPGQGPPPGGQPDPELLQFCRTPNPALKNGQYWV

Binder	EC50 of killing (LDH release) of MV-3 cells, human PBMCs, E:T 10:1, 21 h [1]	EC50 of killing (LDH release) of WM266-4 cells, human PBMCs, E:T 10:1, 21 h [1]	EC50 [2]	EC50 [pM] of killing (LDH release) of MV-3 cells, human PBMCs, E:T 10:1, about 24 h [3]	EC50 [pM] of killing (LDH release) of WM266-4 cells, human PBMCs, E:T 10:1, about 24 h [3]	EC50 [4]	EC50 of killing (LDH release) of LS-174T cells, human PBMCs, E:T 10:1, 28 h [5]	EC50 of killing (LDH release) of MC38-huCEA cells, human PBMCs, E:T 10:1, 24 h [5]	EC50 of killing (LDH release) of MKN-45 cells, human PBMCs, E:T 10:1, 28 h [5]	binding result [4]
B1	0.0884 nM	0.0539 nM	–	–	–	–	–	–	–	–
B2	–	–	3.4 nM	3 pM	7.1 pM	32 nM	–	–	–	–
B3	–	–	0.57 nM	4.1 pM	3.7 pM	6.1 nM	–	–	–	–
B4	–	–	–	–	–	–	1.56 nM	~3.2 nM	0.213 nM	binds
B5	–	–	3.1 nM	11 pM	11.3 pM	10.3 nM	–	–	–	–
